# Data from paper PMC11119796.
# “And” between values parts separate entries of the source, which are not always exact repeats. Equal entries are not always repeated.
# Key:
# [1] = target: endogenous PKM2 (A549 cells) (human (endogenous in A549)) (UniProt P14618); test: cross-linking; DSS 250 μM added to collected cells in PBS pH 8.0, 30 min at 37 °C, quenched with 10 mM Tris-HCl pH 7.5; lysis and Western blot of PKM2; 4T1 cells (control or Islr-deleted) and A549 cells (with or without stable ISLR, H2O2 at indicated dose for 30 min)
# [2] = target: endogenous Pkm2 (4T1 cells) (mouse (endogenous in 4T1)) (UniProt P52480); test: as above
# Sequence of endogenous Pkm2 (4T1 cells), P52480 1-531 (enzyme; other documents disagree on this pair) (P52480 whole entry): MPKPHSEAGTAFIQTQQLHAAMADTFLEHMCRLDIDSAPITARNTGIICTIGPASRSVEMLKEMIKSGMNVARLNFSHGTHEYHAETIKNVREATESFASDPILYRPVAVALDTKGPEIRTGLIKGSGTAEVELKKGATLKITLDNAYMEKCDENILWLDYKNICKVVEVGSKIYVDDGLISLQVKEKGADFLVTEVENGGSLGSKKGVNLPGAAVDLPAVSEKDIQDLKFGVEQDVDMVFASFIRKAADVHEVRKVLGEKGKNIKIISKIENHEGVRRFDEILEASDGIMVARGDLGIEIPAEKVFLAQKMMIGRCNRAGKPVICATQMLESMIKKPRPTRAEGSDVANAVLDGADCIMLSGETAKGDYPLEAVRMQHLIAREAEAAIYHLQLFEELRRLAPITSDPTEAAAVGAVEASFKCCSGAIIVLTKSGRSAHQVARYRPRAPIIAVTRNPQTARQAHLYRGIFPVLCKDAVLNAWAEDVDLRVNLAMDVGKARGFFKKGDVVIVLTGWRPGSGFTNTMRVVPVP
# Sequence of endogenous PKM2 (A549 cells), P14618 1-531 (enzyme; other documents disagree on this pair) (P14618 whole entry): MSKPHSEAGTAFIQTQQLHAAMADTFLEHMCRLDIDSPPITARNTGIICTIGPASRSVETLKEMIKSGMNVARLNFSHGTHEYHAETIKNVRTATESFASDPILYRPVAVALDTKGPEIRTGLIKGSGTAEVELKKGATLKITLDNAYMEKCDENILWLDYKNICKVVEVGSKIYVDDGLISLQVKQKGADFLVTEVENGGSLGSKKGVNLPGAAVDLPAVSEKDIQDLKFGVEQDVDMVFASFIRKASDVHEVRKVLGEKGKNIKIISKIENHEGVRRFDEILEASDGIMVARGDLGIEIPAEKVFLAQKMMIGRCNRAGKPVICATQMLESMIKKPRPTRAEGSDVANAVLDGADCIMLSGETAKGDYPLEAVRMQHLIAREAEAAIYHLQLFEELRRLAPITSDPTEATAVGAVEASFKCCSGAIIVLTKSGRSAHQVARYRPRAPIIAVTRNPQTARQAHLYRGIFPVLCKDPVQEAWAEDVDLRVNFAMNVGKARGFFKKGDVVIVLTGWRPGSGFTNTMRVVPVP
substance,measurement,setting,value
"endogenous PKM2 (A549 cells), P14618 1-531 (enzyme; other documents disagree on this pair)",stoichiometry N,[1],2
"endogenous Pkm2 (4T1 cells), P52480 1-531 (enzyme; other documents disagree on this pair)",stoichiometry N,[2],2 and 4
